B1: Endonuclease CUE2, residues 9 to 47; numbered along this chain, P36075 (parent)
chain: HESKLSILMDMFPAISKSKLQVHLLENNNDLDLTIGLLL

Abundance fitness data for 64 variants are collected here from the Human Domainome abundance scans (Beltran et al. 2025).

± gives the uncertainty stated by the source.

This data set covers variants of B1. As to the kind of experiment: abundance fitness (aPCA) (normalised: wild type 0, dead -1); higher = more abundant; growth selection in yeast, the domain comes from the species named. To be noted: Saccharomyces cerevisiae (strain ATCC 204508 / S288c).
For HESKLSILMLMFPAISKSKLQVHLLENNNDLDLTIGLLL [D10L], the abundance fitness is -0.441 ± 0.051.
The figure for HESKLSILMQMFPAISKSKLQVHLLENNNDLDLTIGLLL [D10Q] is -0.183 ± 0.064; for HESKLSILMIMFPAISKSKLQVHLLENNNDLDLTIGLLL [D10I] it is -0.12 ± 0.067.
The figure for HESKLSILMFMFPAISKSKLQVHLLENNNDLDLTIGLLL [D10F] is -0.463 ± 0.18; for HESKLSILMPMFPAISKSKLQVHLLENNNDLDLTIGLLL [D10P] it is -0.587 ± 0.12; for HESKCSILMDMFPAISKSKLQVHLLENNNDLDLTIGLLL [L5C] it is -0.306 ± 0.066.
In the case of HESKDSILMDMFPAISKSKLQVHLLENNNDLDLTIGLLL [L5D] it was -0.928 ± 0.25.
With HESKASILMDMFPAISKSKLQVHLLENNNDLDLTIGLLL [L5A], the abundance fitness was -0.708 ± 0.068.
As to HESKESILMDMFPAISKSKLQVHLLENNNDLDLTIGLLL [L5E], the abundance fitness is -0.683 ± 0.076.
The figure for HESKWSILMDMFPAISKSKLQVHLLENNNDLDLTIGLLL [L5W] is -0.779 ± 0.078.
In the case of HESKGSILMDMFPAISKSKLQVHLLENNNDLDLTIGLLL [L5G] it was -0.817 ± 0.055.
In the case of HESKRSILMDMFPAISKSKLQVHLLENNNDLDLTIGLLL [L5R] it was -0.906 ± 0.067; in that of HESKPSILMDMFPAISKSKLQVHLLENNNDLDLTIGLLL [L5P], -0.738 ± 0.18; in that of HESKQSILMDMFPAISKSKLQVHLLENNNDLDLTIGLLL [L5Q], -0.775 ± 0.081.
Turning to HESKVSILMDMFPAISKSKLQVHLLENNNDLDLTIGLLL [L5V], the abundance fitness is -0.002 ± 0.037.
Consider HESKKSILMDMFPAISKSKLQVHLLENNNDLDLTIGLLL [L5K], for which the abundance fitness is -0.771 ± 0.27.
The figure for HESKMSILMDMFPAISKSKLQVHLLENNNDLDLTIGLLL [L5M] is -0.031 ± 0.065; for HESKSSILMDMFPAISKSKLQVHLLENNNDLDLTIGLLL [L5S] it is -0.856 ± 0.22.
In the case of HESKTSILMDMFPAISKSKLQVHLLENNNDLDLTIGLLL [L5T] it was -0.338 ± 0.072; in that of HESKHSILMDMFPAISKSKLQVHLLENNNDLDLTIGLLL [L5H], -1 ± 0.19.
The figure for HESKLPILMDMFPAISKSKLQVHLLENNNDLDLTIGLLL [S6P] is -0.342 ± 0.072; for HESKLEILMDMFPAISKSKLQVHLLENNNDLDLTIGLLL [S6E] it is -0.107 ± 0.053.
For HESKLGILMDMFPAISKSKLQVHLLENNNDLDLTIGLLL [S6G], the abundance fitness was -0.073 ± 0.032.
HESKLWILMDMFPAISKSKLQVHLLENNNDLDLTIGLLL [S6W]: the abundance fitness was -0.443 ± 0.074.
The figure for HESKLYILMDMFPAISKSKLQVHLLENNNDLDLTIGLLL [S6Y] is 0.32 ± 0.45; for HESKLQILMDMFPAISKSKLQVHLLENNNDLDLTIGLLL [S6Q] it is 0 ± 0.12.
In the case of HESKLMILMDMFPAISKSKLQVHLLENNNDLDLTIGLLL [S6M] it was -0.221 ± 0.09.
HESKLRILMDMFPAISKSKLQVHLLENNNDLDLTIGLLL [S6R]: the abundance fitness was -0.027 ± 0.033.
In the case of HESKLHILMDMFPAISKSKLQVHLLENNNDLDLTIGLLL [S6H] it was -0.38 ± 0.089; in that of HESKLTILMDMFPAISKSKLQVHLLENNNDLDLTIGLLL [S6T], -0.011 ± 0.045; in that of HESKLLILMDMFPAISKSKLQVHLLENNNDLDLTIGLLL [S6L], -0.098 ± 0.042.
For the variant HESKLAILMDMFPAISKSKLQVHLLENNNDLDLTIGLLL [S6A], the abundance fitness came to 0.041 ± 0.034.
In the case of HESKLSELMDMFPAISKSKLQVHLLENNNDLDLTIGLLL [I7E] it was -0.158 ± 0.065; in that of HESKLSSLMDMFPAISKSKLQVHLLENNNDLDLTIGLLL [I7S], -0.114 ± 0.065; in that of HESKLSTLMDMFPAISKSKLQVHLLENNNDLDLTIGLLL [I7T], 0.059 ± 0.051.
The figure for HESKLSPLMDMFPAISKSKLQVHLLENNNDLDLTIGLLL [I7P] is -0.633 ± 0.17; for HESKLSDLMDMFPAISKSKLQVHLLENNNDLDLTIGLLL [I7D] it is 0.22 ± 0.28.
For the variant HESKLSVLMDMFPAISKSKLQVHLLENNNDLDLTIGLLL [I7V], the abundance fitness was 0.095 ± 0.036.
In the case of HESKLSWLMDMFPAISKSKLQVHLLENNNDLDLTIGLLL [I7W] it was -0.406 ± 0.067; in that of HESKLSQLMDMFPAISKSKLQVHLLENNNDLDLTIGLLL [I7Q], 0.137 ± 0.072.
The figure for HESKLSALMDMFPAISKSKLQVHLLENNNDLDLTIGLLL [I7A] is 0.071 ± 0.042; for HESKLSGLMDMFPAISKSKLQVHLLENNNDLDLTIGLLL [I7G] it is -0.544 ± 0.039.
In the case of HESKLSMLMDMFPAISKSKLQVHLLENNNDLDLTIGLLL [I7M], the abundance fitness was determined as 0.058 ± 0.071.
The figure for HESKLSKLMDMFPAISKSKLQVHLLENNNDLDLTIGLLL [I7K] is 0.078 ± 0.096; for HESKLSFLMDMFPAISKSKLQVHLLENNNDLDLTIGLLL [I7F] it is -0.282 ± 0.076; for HESKLSCLMDMFPAISKSKLQVHLLENNNDLDLTIGLLL [I7C] it is 0.153 ± 0.26.
In the case of HESWLSILMDMFPAISKSKLQVHLLENNNDLDLTIGLLL [K4W] it was -0.572 ± 0.057; in that of HESLLSILMDMFPAISKSKLQVHLLENNNDLDLTIGLLL [K4L], -0.13 ± 0.047; in that of HESVLSILMDMFPAISKSKLQVHLLENNNDLDLTIGLLL [K4V], -0.37 ± 0.047.
In the case of HESDLSILMDMFPAISKSKLQVHLLENNNDLDLTIGLLL [K4D] it was 0.115 ± 0.059; in that of HESGLSILMDMFPAISKSKLQVHLLENNNDLDLTIGLLL [K4G], -0.241 ± 0.033.
Take HESHLSILMDMFPAISKSKLQVHLLENNNDLDLTIGLLL [K4H]: the abundance fitness turned out to be 0.098 ± 0.19.
For HESQLSILMDMFPAISKSKLQVHLLENNNDLDLTIGLLL [K4Q], the abundance fitness was -0.023 ± 0.052.
In the case of HESPLSILMDMFPAISKSKLQVHLLENNNDLDLTIGLLL [K4P] it was -0.16 ± 0.059.
In the case of HESELSILMDMFPAISKSKLQVHLLENNNDLDLTIGLLL [K4E] it was -0.011 ± 0.034; in that of HESNLSILMDMFPAISKSKLQVHLLENNNDLDLTIGLLL [K4N], -0.023 ± 0.1; in that of HESYLSILMDMFPAISKSKLQVHLLENNNDLDLTIGLLL [K4Y], 0.127 ± 0.21.
In the case of HESSLSILMDMFPAISKSKLQVHLLENNNDLDLTIGLLL [K4S] it was -0.001 ± 0.065; in that of HESRLSILMDMFPAISKSKLQVHLLENNNDLDLTIGLLL [K4R], -0.038 ± 0.035.
Take HESMLSILMDMFPAISKSKLQVHLLENNNDLDLTIGLLL [K4M]: the abundance fitness came to 0.188 ± 0.11.
In the case of HESCLSILMDMFPAISKSKLQVHLLENNNDLDLTIGLLL [K4C] it was -0.061 ± 0.061; in that of HESFLSILMDMFPAISKSKLQVHLLENNNDLDLTIGLLL [K4F], -0.259 ± 0.086.
In the case of HESILSILMDMFPAISKSKLQVHLLENNNDLDLTIGLLL [K4I] it was -0.127 ± 0.17; in that of HESALSILMDMFPAISKSKLQVHLLENNNDLDLTIGLLL [K4A], -0.117 ± 0.04.
